Measured values as given in the nanobody polyreactivity screen of Harvey et al. (2022).

Experiment: yeast display, Sf9 membrane polyspecificity reagent, FACS + sequencing; frameworks hold sequencing errors
Method in brief: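 Synthetic nanobody libraries on Saccharomyces cerevisiae BJ5465 were galactose-induced for 36–48 hours, stained 1 hour at 4 °C with 10% biotinylated, detergent-solubilized Sf9 membrane reagent and enriched on streptavidin microbeads. FACS then separated cells into low and high (top ~1%) gates by anti-HA (expression) and streptavidin (reagent binding) fluorescence. Genes were colony-PCR amplified, MiSeq 2 × 250 sequenced and CDR-length filtered. A clone's polyreactivity label is that of its gate of origin.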

Sequence	polyreactivity (PSR sort gate)
QVQLHESGGGLVQAGGSLRLSCAASGTISYAGPMGWYRQAPGKEREFVAGIGVGSNTNYADSVKGRYTIIRDNAKNTVYLQMTSLKPEETAVYYCAVGGYAPLGPPYWGQGTQVTVSS	low polyreactivity
QVQLVESGGGLVQAGGSLRLSCAASGSIFGYNAMGWYRQAPGKERELVAAISLTTGSTYYADSVKGRFTISRDNAKNTVYLQMNCLKPEDTAVYYCAAVDADYYYWGQGTQVTVSS	high polyreactivity
QVQLVESGGGLVQAGGSLRLSCAASGFTFKVYNAMGWYRQAPGKERELVAAISSSVGGTYYADSVKGRFTISRDYAKNTVYLQMNSLKPEDTAVYYCATDDFTYVVAKDGDYWGQGTQVTVSS	low polyreactivity
QVQLVESAGGLVQAGGSLRLSCAASGSTFTYYAMGWSRQAPGKESELVAAISSGASTYYADSVKGRFTFSRDNAKNTVYLQMNSLKPEDTAVYYCNAKKSIRPYRTGMDYWGQGTQVTVSS	high polyreactivity
QDQLVESGGGLVQAGGRLRLSCAASGSIFLRNAIGWYRQAPGKERDLVAAISKSGGSTYYADSVKGRFTISRDNAKNTVYLQMNSLKPEDTAVYYCAARTTYLYGMYYWGQGTQVTVSS	low polyreactivity
QVQLVESGGGLVQAGGSLRLSCAASGSTFYKYAMGWYRQATGKERELVASTYADSVKGRFTISRDNAKNTVYLQMNSLKPEDTAVYYCAKDTASGPYDYWGQGTQVTVSS	low polyreactivity
QLQLVESGGGLVQAGGSLRLSCAASGLTFQYYDMGRYRQAPGKERELVDVIRGSGTSTYYADSVKGRFTISRDNAKNTVYLQMNCLKPEDTAVYYCAAPYQYRRTGRVLGKYDSWGQGTQVTVSS	high polyreactivity
QGQLVESGGGLVQAGGSLRLSCAASGSIFRSYAMGWYRQAPGKERELVASISRRGGSTYYADSVKGRFTISRDNAKNTVYLQMNSLKPEDTAVYYCAAVRYNSRVSTSPSEMYYWGQGTQVTVSS	low polyreactivity
QVQLVESGGGLVQAGGSLRLSCAASGSTFYPYAMGWYRQAPGKERELVADITNSGSTYYADSVKGRFTISRDNAKNTVYLQMNSLKPEDTAVYYCAARVYSVADYYYWGQGTQVTVSS	low polyreactivity
QVQLVESGGGLVQAGGSLRLSCAASGSIFSYYAMGWYRQAPGKERELVADISFTGDSTYYADSVKGRFTISRDNAKNTVYLQMNSLKPEDTAVYYCAKDEIIAVYFEYDYWGQGTQVTVSS	low polyreactivity
QVQLVESGGGLVQAGGSLPLSCAASGRTYVSYVMGRYRQAPGKEREFVAAISRSGGNTYYADSVKGRFTISRDTAKNTVYLQMNSLNPEDTAVYYCYVLLQRVYGTAPSFDYWGQGTQVTVSS	high polyreactivity
QVQLVESGGGLVQAGGSLRLSCAASGITSSYAMGWYRQAPGKERELVAAISRGGSTYYADSVKGRFTISRDNAKNTVYLLLNSLKPEDTAVYYCNKRRYPYGWGQGTLVTVSS	high polyreactivity
QVQLVESGGGLVQAGGSLRLSCAASGNIFRYYAMGWYRPAPGKERELVAAISSRGGSTYYADSVKGRFTISRDNAKNTVYLQMTSLKPADTAVYYCAAGGYDVYHDPYYYWGQGTQVTVSS	low polyreactivity
QVQLVESGGGLVQAGGSIRLSCAASGRISAPNAMGWYRQAAVKERELVAAISSGGRTNYADSVKGRFTISRDNEKNTVYLQMNSLKPEDTAVYYCAAYYYNDRMYYWGQGNQVTVSS	high polyreactivity
QVQLVESGGGIVQAGGSLRLSCAASGSTFFSNTMGWYRQAPGKERELVAAITSRGGRTYYADSVKGRFTISRDNAKNTVYLQMNSLKPEDSAVYYCADRFVLHGVYLKFYWGQGTQVTVSS	high polyreactivity
QVQLVESGGGLVQAGGSLRLSCAASGLTLSYTMGWYRQAPGKERELVASITWSGTRTYYADSVKGRFTISRDNAKNTVYLQMNSLKPEDTAVYYCARRSSYGSWGYNYWGQGTQVTVSS	high polyreactivity
QVQLVESGGGLVQAGGSLRLSCAASGSTILAYALGWYRPAPGKERELVAAIRRGGTSTYSADSLKGRFTISRDKAKKTVYLQINSLQPEDTAVYYCNKAYITKRGVSGSNDYWGQGTQVTVSS	low polyreactivity
QVQLVESGGGLVQAGGSLRLSCAASGLTFVDYAMGWYRQAPGKERELVAAITSSGGSITYYADSVKGRFTISRDNAKNTVYSQMNSLKPEDTAVYYCNADYGIYTDSFRGPDYESWGQGTQVTVSS	low polyreactivity
QVQLIESGGGLVQAGGSLRLSCAASGSTFYGNAMGWYRQAPGKEREFVAAITGSGDSTDYADSVKGRFTISRDNAKNTVYLQMNSLIPEDTAVYYCNAVGYTPSKPSKFDYWGQGTQVTVSS	low polyreactivity
QVQLVESGGGLVQAGGSLRLSCAASGSTLDGNTMGWYRQAPGKERELVAAISRSGTSTYYADSVKGRFTISRDNAKNTVYLQMNSLKPEDTAVYYCNAEASDLYYVYLEYDYWGQGTQVTVSS	low polyreactivity
QVQLVESGGGLVQAGGSLRLSCAASGSIFYSYAMGWYRQAPGKARELVATISWAGGRTNYADSVKGRFTISRDNAKNTEYLQMNSLKPEDTAVSYCNKPFPYYPDGPNGYDYWGQGTQVTVSS	low polyreactivity
QVQLVESGGGLVQAGGSLRLSCAASGSIFFIYAMAWYRQAPGKERELVATISRSDVSTFYADSVKGRFTISRDNAKNTVYLQMNSLKPEDTAVYYCAARTGRGDRTRRYYYWGQGTQVTVSS	high polyreactivity

Sequence	polyreactivity (PSR sort gate)
QVHLVESGGGLVQAGGSLRLSCAASGIIFSTYAMGWYRQAPGKERELVAAITSTGSTNYADSVKGRFTISRDNAKNTVYLQINRLKQEDTAVYYCAARYAGPSPTDTGHDYWGQGTQVTVSS	low polyreactivity
QVQLVESGGGLVQAGGSLRLSCAASGIIFDYYAMGWYRQAPGKERELVAGISQRGGSTYYADSVKGRFTISRDNAKITVYLQMNSLKPEDTAVYYWAAYTRSCEGHRGGYWGQGTQVTVSS	high polyreactivity
QVQLVESGGGLVQAGGSLSLSCAASGSIFRHNVMGWYIPAPGKERELVAAISGGGGRTYYADSVKGRFTISRDNAKNTDYLQMKSLKPEDTAVYYCYAYVGLSEGDYWGQGTHVTVSS	high polyreactivity
QVQLVESGGGLVQAGGSLRLSCAASGSTFSQNAMGWYRQAPGKERELVAAITSGGITYYADSVKGRFTISRDNAKNTVYLQMNSLKPEDTAVYYCAAVTPSGAHRSAYHPISDYWGQGTQVTVSS	low polyreactivity
QVQLVESGGGLVQAGGSLRLSCAASGSIFYDYAMGWYRQAPGKERELVAAITASGGSTYYADSVKGRFTISRDNAKNTVYLQMNSLKPEDTAVYYCAAESESYEQVGEMDSWGQGTQVTVSS	low polyreactivity
QVQLVESGGGLVQAGGSLRLSCAASGSTFDGNAMGWYRQAPGKERELVAAITSGGSTNYADSVKGRFTISRDNAKNTDYLQMNSLKPEDTAVYYCAADTVSFSILYDYWGQGTQVTVSS	low polyreactivity
QVQLLESGGGLVQAGGSDRLSCAASGSIFSFNAMGWYRQAPGKERELVAAISRGGSTYYADSVKGRFTISRDNAKNTVYLQLNSLKPEDTAVYYCAADIYGHSYSYYLGEYWGQGTQVTVSS	high polyreactivity
QVQLVESGGGLVQAGGSLRLSCAASGSTFKYYAMGWYRQAPGKERELVARISSGGRTYYADSVKGRFTISRDNAKNTVYLQMNSLKPEDTAVYYCNAQGYTTYRGDYWGQGTQVTVSS	high polyreactivity
QVQLVESGGGLVQAGGSLRLICAASGFIFNAYAMGWYRQAPGKERELVAAISTRGSNTYYADSVKGRFTISRDNAKNTVYLQMNSLKPEDTAVYYCNRVFSYQYKRDYWGQGTQVTVSS	high polyreactivity
QVQLVESGGGLVQAGGSLRLSCAASGLTFKYYTMGWYRQAPGKERELVADISRTGRTSYADSVKGRFTISRDNAKNTDYLQMNSLKPEDTAVYYCNADFYVSGYSLFASIYDYWGQGTQVTVSS	high polyreactivity
QVQLVESGGGLVQAGGSLRLSCAASGNIFYIYAMGWYRQAPGKERELVASISGRGGRTYYADSVKGRFTISRDNAKNTVYLQMNSLKPEDTAVYYCAADGYRTYSEMDYWGQGTQVTVSS	high polyreactivity
QVHLVESGGGLVQAGGSLRLSCAASGSTFRPYAMGWYRQAPGKERELVAAITGSGGSTYYADSVKGRFTISRDNAKNTVYLQMISLKPEDTAVYYCNAVSTWRYYYWGQGTQVTVSS	high polyreactivity
QVQLVESGGGLVQAGGSLRLSCAASGRTFSNNAMGWYRQAPGKERELVADITYSSDSTYYADSVKGRFTISRDNAKNTVYLQMNCLKPEDTAVYYCAADVVVGGSGSEYYYWGQGTQVTVSS	low polyreactivity
QVQLVESGGGLVQAGGSLRLSCAASGFTFTQYVKGWYRQAPGKERELVAAITRGGGSTYYADSVKGRFTISRDNAKNTVYLQMNRLKPEDTAFYYCATRRVEYIRGWVEYDYWGQGTQVTVSS	low polyreactivity
QVQLVESGGGLVQAGGSLRLSCAASGSTFAVYTMGWYRQAPGKERELVAAISSSGGSTYLRRSVKGRFTISRDNAKNTVYLQMNSLKPEDTAVYYCAAQWYAGHWHVPYEYWGQGTQVTVSS	high polyreactivity
QVQLVESGGGLVQAGGSLRLSCAASGSIFQKNAMGWYRQAPGKERELVAVITRGGTSTYYADSVKGRFTISRDNAKNTVYLQMNSLKAEDTAVYSCAAKADKRLDYWGQGTQVTVSS	low polyreactivity
QVQLVDSGGGLVQAGGSLRESCAASGSTFYYNDMGWSRQAPGKDRELVAAIRTSGSTNYAESVKGRFTLSRDNAKNTVYLQMNSLKPEDTEVYYCNAVVRHWFPGWYGRGDDYWGQGTQVTVSS	low polyreactivity
QVQLVESGGGLVQAGGSLRLSCAASGRTFVLYAMGWYRQAPGKERELVAAIRQSDVSTYYADSVKGRFTISRDNAKNTVFLQMNSLKPEDTAVFYCAARNRYRRRYYYWGQGTQVTVSS	high polyreactivity
QVQLVESGGGLVQAGGSLRLSCAAYGFTFTRKAMGWYRQAPGKERELVAAISGSGGSTYYADSVKGRYTISRDNAKNTVYLQMNSLKPADTAVYYCAKDGWWRKYDYWGQGTQVTVSS	high polyreactivity
QVQLVESGGGLVQAGGSLRLSCAASGSILYVYAMGWYRQAPGKERELVAVITSGGSTNYADSVKGRFTISRDNAKNTVYLQMHSLKPEDSAVYHCAAYYDYDWKYAPSFDYGYWGQGTQVTVSS	low polyreactivity
QVQHVESGGGLVQAGGSLRLSCPASGIIIYQYALGSYRQAPGKERELVAAISSGVNTYYADSVKGRFTISRDNAKNTVYLQMNSLKPEDTAVYYCAARLTFGYLRSKFYYWGQGTQVTVSS	high polyreactivity
